Tests used:
[1] = biological target: T1, Latrophilin-3 ADHD-related variant T783M (Lphn3^T783M) (human)
T1 chain: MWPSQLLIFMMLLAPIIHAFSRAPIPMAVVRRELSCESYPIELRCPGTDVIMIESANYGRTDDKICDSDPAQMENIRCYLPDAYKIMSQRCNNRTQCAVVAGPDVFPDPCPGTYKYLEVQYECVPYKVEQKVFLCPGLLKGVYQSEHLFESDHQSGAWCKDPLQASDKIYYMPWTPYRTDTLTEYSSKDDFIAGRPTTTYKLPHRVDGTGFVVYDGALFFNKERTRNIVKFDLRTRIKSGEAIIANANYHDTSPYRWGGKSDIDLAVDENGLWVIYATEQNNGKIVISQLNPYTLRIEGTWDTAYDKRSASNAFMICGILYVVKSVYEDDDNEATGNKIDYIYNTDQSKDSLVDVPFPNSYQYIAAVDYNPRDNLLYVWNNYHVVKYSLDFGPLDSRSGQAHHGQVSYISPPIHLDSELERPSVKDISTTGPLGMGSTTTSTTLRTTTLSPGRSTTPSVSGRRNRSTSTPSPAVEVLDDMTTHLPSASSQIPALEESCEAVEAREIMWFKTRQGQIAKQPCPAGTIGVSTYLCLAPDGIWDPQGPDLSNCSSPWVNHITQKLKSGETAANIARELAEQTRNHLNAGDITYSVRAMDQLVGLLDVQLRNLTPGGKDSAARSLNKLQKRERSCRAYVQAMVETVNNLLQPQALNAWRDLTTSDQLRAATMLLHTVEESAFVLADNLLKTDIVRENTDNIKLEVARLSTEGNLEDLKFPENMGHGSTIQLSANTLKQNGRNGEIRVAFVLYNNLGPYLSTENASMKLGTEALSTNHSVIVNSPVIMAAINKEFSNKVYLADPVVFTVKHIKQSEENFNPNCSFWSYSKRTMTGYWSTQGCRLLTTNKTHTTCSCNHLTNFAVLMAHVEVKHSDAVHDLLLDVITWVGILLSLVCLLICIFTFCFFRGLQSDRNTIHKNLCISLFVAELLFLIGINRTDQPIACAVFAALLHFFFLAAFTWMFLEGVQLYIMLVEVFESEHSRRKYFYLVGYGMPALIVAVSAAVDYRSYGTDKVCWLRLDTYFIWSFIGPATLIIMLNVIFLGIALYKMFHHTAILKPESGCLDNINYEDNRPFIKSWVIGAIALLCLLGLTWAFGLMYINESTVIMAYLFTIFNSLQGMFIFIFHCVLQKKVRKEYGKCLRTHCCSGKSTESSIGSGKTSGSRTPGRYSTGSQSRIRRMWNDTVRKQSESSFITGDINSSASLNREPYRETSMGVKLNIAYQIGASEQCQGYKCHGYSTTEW

[2] = biological target: T2, Latrophilin-3 ADHD-related variant R465S (Lphn3^R465S) (human)
T2 chain: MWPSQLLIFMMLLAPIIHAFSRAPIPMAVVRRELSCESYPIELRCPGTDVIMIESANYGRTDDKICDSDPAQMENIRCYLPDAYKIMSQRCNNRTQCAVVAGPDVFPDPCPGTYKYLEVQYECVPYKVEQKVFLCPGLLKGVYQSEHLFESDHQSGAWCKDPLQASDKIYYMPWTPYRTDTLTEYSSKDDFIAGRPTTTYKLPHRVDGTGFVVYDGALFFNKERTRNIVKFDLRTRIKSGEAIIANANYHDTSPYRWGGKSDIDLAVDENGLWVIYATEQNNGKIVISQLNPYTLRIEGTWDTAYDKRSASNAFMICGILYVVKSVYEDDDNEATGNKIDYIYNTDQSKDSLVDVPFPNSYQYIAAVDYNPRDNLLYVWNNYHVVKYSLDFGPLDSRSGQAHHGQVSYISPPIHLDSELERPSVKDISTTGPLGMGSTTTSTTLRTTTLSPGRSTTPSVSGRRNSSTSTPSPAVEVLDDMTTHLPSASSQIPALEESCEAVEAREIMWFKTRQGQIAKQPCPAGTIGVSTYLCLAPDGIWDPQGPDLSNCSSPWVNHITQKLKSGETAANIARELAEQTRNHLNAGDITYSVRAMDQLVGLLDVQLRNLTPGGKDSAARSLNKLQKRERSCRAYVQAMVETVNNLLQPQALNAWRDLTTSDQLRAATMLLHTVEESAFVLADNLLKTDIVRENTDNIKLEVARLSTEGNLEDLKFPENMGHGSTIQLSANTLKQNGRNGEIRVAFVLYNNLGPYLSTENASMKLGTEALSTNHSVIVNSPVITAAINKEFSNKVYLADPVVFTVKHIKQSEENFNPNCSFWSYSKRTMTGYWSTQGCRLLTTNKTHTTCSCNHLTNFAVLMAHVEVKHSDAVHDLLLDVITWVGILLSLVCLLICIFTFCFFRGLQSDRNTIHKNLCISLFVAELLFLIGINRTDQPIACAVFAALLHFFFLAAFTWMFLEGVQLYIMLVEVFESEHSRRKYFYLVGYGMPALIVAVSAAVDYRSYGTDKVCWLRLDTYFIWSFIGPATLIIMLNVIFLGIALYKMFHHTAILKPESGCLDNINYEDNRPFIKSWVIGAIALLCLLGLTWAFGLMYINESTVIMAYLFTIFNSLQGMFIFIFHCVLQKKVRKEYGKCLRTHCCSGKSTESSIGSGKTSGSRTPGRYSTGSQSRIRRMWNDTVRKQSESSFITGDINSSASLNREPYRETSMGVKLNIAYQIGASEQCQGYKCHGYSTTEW

B1: soluble FLRT3 extracellular domain fused to the constant fraction of human IgG (FLRT3^ECD-Fc) (Fc fusion)
chain: KSCPSVCRCDAGFIYCNDRFLTSIPTGIPEDATTLYLQNNQINNAGIPSDLKNLLKVERIYLYHNSLDEFPTNLPKYVKELHLQENNIRTITYDSLSKIPYLEELHLDDNSVSAVSIEEGAFRDSNYLRLLFLSRNHLSTIPWGLPRTIEELRLDDNRISTISSPSLQGLTSLKRLVLDGNLLNNHGLGDKVFFNLVNLTELSLVRNSLTAAPVNLPGTNLRKLYLQDNHINRVPPNAFSYLRQLYRLDMSNNNLSNLPQGIFDDLDNITQLILRNNPWYCGCKMKWVRDWLQSLPVKVNVRGLMCQAPEKVRGMAIKDLNAELFDCKDSGIVSTIQITTAIPNTVYPAQGQWPAPVTKQPDIKNPKLTKDHQTTGSPSRKTITITVKSVTSDTIHISWKLALPMTALRLSWLKLGHSPAFGSITETIVTGERSEYLVTALEPDSPYKVCMVPMETSNLYLFDETPVCIETETAPLRMYNPTTTLNREQEKEPYKNPNLP
modifications: HA/Flag epitopes left out; isoform assumed; signal peptide removed and GPS autoproteolysis expected
Kd [1]: 1.22 nM | Kd [2]: 1.02 nM

— publication PMC9135631 (2022)
